Assay results reported in paper PMC9897667 (2023).

Key:
[1] = target: extracellular domain of human RAGE (residues 1 to 344) (human, UniProt Q15109 23-344); test: SPR
[2] = target: human TLR4 (ECD-His Tag, residues 1 to 631) (human, UniProt O00206 24-631); test: SPR
Sequence of human TLR4 (ECD-His Tag, residues 1 to 631) (O00206 24-631): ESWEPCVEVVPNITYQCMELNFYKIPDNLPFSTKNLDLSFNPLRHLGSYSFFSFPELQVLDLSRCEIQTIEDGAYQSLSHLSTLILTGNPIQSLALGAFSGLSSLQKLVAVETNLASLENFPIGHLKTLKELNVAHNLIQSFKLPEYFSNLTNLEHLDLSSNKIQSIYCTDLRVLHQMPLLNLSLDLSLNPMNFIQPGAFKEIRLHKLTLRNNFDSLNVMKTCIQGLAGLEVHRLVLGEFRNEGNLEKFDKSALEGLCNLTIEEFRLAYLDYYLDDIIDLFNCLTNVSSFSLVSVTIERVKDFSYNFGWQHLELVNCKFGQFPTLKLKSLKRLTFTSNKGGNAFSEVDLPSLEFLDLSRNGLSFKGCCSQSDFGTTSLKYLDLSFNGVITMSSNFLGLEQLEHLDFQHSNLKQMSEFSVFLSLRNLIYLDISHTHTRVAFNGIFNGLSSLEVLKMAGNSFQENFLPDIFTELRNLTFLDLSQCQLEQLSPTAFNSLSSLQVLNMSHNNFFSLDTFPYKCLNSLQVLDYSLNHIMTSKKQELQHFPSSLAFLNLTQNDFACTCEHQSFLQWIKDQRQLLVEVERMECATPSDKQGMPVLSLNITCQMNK

Sequence of extracellular domain of human RAGE (residues 1 to 344) (Q15109 23-344): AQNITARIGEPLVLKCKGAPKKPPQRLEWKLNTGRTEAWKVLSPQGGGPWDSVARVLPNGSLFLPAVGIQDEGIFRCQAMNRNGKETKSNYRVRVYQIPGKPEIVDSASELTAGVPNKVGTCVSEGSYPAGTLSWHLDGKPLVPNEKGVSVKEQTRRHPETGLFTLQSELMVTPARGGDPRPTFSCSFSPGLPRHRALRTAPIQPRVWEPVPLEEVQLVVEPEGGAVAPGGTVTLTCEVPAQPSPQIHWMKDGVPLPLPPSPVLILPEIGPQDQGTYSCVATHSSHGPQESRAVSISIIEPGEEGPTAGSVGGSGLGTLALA

Kd [1]: 2.7 nM
Kd [2]: 18 nM
B1: recombinant human procathepsin L (pCTS-L) (natural protein)
chain: TLTFDHSLEAQWTKWKAMHNRLYGMNEEGWRRAVWEKNMKMIELHNQEYREGKHSFTMAMNAFGDMTSEEFRQVMNGFQNRKPRKGKVFQEPLFYEAPRSVDWREKGYVTPVKNQGQCGSCWAFSATGALEGQMFRKTGRLISLSEQNLVDCSGPQGNEGCNGGLMDYAFQYVQDNGGLDSEESYPYEATEESCKYNPKYSVANDTGFVDIPKQEKALMKAVATVGPISVAIDAGHESFLFYKEGIYFEPDCSSEDMDHGVLVVGYGFESTESDNNKYWLVKNSWGEEWGMGGYVKMAKDRRNHCGIASAASYPTV
